Test results: US20110086089A1, “USE OF P27KIP1 FOR THE PREVENTION AND TREATMENT OF HEART FAILURE” (UNIVERSITY HEALTH NETWORK, priority 2008, published 2011)

System: p27 phosphorylation at S83 and T187 in cardiomyocytes
Experiment: p27 phosphorylation at S83 and T187 in Ang II-treated cardiomyocytes (Western blot)
Format: cell-based, rat
Conditions: Ang II 4 h; lentiviruses 72 h; DMAT 20 μM pre-incubated 30 min; TAT-conjugated CK2-alpha-prime 2.5 μg/ml 1 h
Description: FIG. 2 is a series of graphs and blots showing Ang II triggers CK2-alpha-prime-dependent phosphorylation of p27 on S83 and T187 in cardiomyocytes. (A) p27 is a substrate of CK2-alpha-prime. […] In vitro kinase assays employing recombinant wt.p27 (1 μg) or phosphorylation site mutants of p27 as substrates were incubated with recombinant CK2-alpha-prime/beta (200 ng). Aliquots of the reaction mixtures were resolved on SDS-PAGE, electrotransferred to nitrocellulose membranes, and the amount of incorporated radioactive [^32P}-label into p27 was quantified with a PhosphorImager and ImageJ software. Individual membranes were probed with anti-CK2-alpha-prime, anti-p27 (input), or phosphorylation site specific antibodies to p27. […] Samples were resolved on SDS-PAGE, transferred to nitrocellulose-membranes, and the amount of incorporated radioactive label into histones was quantified with a PhosphorImager and ImageJ. The input amount of each CK2-alpha-prime and p27 protein used in the kinase reaction mixtures was monitored by immunoblot analysis employing anti-His. […] Biochemically fractionated extracts corresponding to 4×10^5 cells per lane were analyzed by immunoblotting employing antibodies as indicated on the left. […]

B1: kd.CK2-α′: catalytically-inactive kinase-dead CK2-alpha-prime, point mutation K69M; TAT-conjugated protein in mice, lentivirally expressed in cardiomyocytes (protein)
chain: MPGPAAGSRARVYAEVNSLRSREYWDYEAHVPSWGNQDDYQLVRKLGRGKYSEVFEAINITNNERVVVMILKPVKKKKIKREVKILENLRGGTNIIKLIDTVKDPVSKTPALVFEYINNTDFKQLYQILTDFDIRFYMYELLKALDYCHSKGIMHRDVKPHNVMIDHQQKKLRLIDWGLAEFYHPAQEYNVRVASRYFKGPELLVDYQMYDYSLDMWSLGCMLASMIFRREPFFHGQDNYDQLVRIAKVLGTEELYGYLKKYHIDLDPHFNDILGQHSRKRWENFIHSENRHLVSPEALDLLDKLLRYDHQQRLTAKEAMEHPYFYPVVKEQSQPCADNAVLSSGLTAAR
modifications: left off: small tags and cut ends
notes: TAT-conjugated protein in mice, lentivirally expressed in cardiomyocytes
S83/T187 phosphorylation of p27 in cardiomyocytes: abolished
